Results on 1 molecule are retold here after article PMC10756261 (Proceedings of the National Academy of Sciences of the …, 2023).

For this assay, the target named is T1, GST-RPA1a (Arabidopsis thaliana, UniProt Q9SKI4 1-640).
T1 sequence (looked up): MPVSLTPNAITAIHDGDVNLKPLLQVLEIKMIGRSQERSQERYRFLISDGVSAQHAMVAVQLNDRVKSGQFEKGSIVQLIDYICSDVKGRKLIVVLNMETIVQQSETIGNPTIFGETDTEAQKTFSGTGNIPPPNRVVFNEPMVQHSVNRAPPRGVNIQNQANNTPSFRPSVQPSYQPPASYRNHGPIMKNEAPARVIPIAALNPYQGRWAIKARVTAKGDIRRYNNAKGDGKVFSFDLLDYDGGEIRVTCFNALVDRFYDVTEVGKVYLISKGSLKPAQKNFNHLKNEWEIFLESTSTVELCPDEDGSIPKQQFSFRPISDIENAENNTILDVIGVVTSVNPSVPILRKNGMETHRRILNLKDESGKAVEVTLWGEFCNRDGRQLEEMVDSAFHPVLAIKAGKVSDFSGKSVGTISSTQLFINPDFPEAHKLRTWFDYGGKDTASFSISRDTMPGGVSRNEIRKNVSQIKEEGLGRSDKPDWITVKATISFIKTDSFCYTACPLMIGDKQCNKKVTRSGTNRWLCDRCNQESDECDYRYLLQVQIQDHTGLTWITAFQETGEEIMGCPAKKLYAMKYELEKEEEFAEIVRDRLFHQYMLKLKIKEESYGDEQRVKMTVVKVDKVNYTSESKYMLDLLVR
The assay can be described thus: pull-down.

B1: His-Sumo-HEI10 (natural protein, Arabidopsis thaliana, UniProt F4HRI2 1-304, looked up)
chain: MRCNACWRDLEGRAISTTCGHLLCTEDASKILSNDGACPICDQVLSKSLMKPVDINPNEEWINMAMAGISPQILMKSAYRSVMFYIAQRDLEMQYKMNRVVAQCRQKCEGMQAKFSEKMEQVHTAYQKMGKRCQMMEQEVENLTKDKQELQEKFSEKSRQKRKLDEMYDQLRSEYESVKRTAIQPANNFYPRHQEPDFFSNPAVNMMENRETIRKDRSFFSPATPGPKDEIWPARQNSSNSGPFDISTDSPAIPSDLGNRRAGRGHPVYGGGGTANPQSTLRNLILSPIKRSQLSRSRPQLFTL
For the molecule B1, the binding result is “binds”.
